Legend:
[1] = target: anti-nAChR autoantibody mAb35 (an autoantibody to rat nAChR), purified from supernatant of hybridoma Mab35 (ATCC TIB-175); assay: ELISA; mAb35 immobilised at 156.3 ng/mL, α1-Fc added, detected with HRP-labeled anti-human Fc antibody
[2] = target: anti-nAChR autoantibody mAb35 (an autoantibody to rat nAChR), purified from supernatant of hybridoma Mab35 (ATCC TIB-175); assay: ELISA; mAb35 immobilised at 10000 ng/mL, α1-Fc added, detected with HRP-labeled anti-human Fc antibody
[3] = target: anti-nAChR autoantibody mAb35 (an autoantibody to rat nAChR), purified from supernatant of hybridoma Mab35 (ATCC TIB-175); assay: ELISA; mAb35 immobilised at 9.8 ng/mL, α1-Fc added, detected with HRP-labeled anti-human Fc antibody
[4] = target: anti-nAChR autoantibody mAb35 (an autoantibody to rat nAChR), purified from supernatant of hybridoma Mab35 (ATCC TIB-175); assay: ELISA; mAb35 immobilised at 2500 ng/mL, α1-Fc added, detected with HRP-labeled anti-human Fc antibody
[5] = target: anti-nAChR autoantibody mAb35 (an autoantibody to rat nAChR), purified from supernatant of hybridoma Mab35 (ATCC TIB-175); assay: ELISA; mAb35 immobilised at 625 ng/mL, α1-Fc added, detected with HRP-labeled anti-human Fc antibody
[6] = target: anti-nAChR autoantibody presented on the cell surface of hybridoma Mab35 (ATCC TIB-175); assay: cell-based or functional assay
[7] = target: anti-nAChR autoantibody mAb35 (an autoantibody to rat nAChR), purified from supernatant of hybridoma Mab35 (ATCC TIB-175); assay: ELISA; mAb35 immobilised at 39.1 ng/mL, α1-Fc added, detected with HRP-labeled anti-human Fc antibody

Substance “fusion protein α1-Fc, consisting of an N-terminal extracellular region of isoform 1 of human nAChRα1 subunit and a human antibody heavy chain Fc region (Fc fusion)” has an Absorbance A450 nm [1] of 0.659 A450 nm, an Absorbance A450 nm [2] of 1.23 A450 nm and an Absorbance A450 nm [3] of 0.505 A450 nm. It also gave an Absorbance A450 nm [4] of 1.12 A450 nm, an Absorbance A450 nm [5] of 0.871 A450 nm and a cellular cytotoxicity (%) (ADCC activity) by NK 92 effector cells on Calcein-AM-loaded hybridoma Mab35 [6] of 50%. It also gave an Absorbance A450 nm [7] of 0.557 A450 nm.
